± gives the standard deviation of the averaged measurements.
Tested on: Saccharomyces cerevisiae
Test: protein stability index of tFT-peptide fusion (C-terminal peptide) (PSI (0-1 scale)); higher = more stable (slower turnover)
Settings: genetic background: wild type; temperature: 30 C
Description: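 Multiplexed protein stability (MPS) profiling in S. cerevisiae. Random 12-aa peptides (tFT-X12 library) are fused to the C-terminus of a sfGFP-mCherry tandem fluorescent timer, after mCherry and a GGGS linker. Cells are FACS-sorted into 8 mCherry/sfGFP bins and deep-sequenced. The protein stability index (PSI) is the read-weighted bin average, scaled from 0 (unstable) to 1 (stable). Only peptides with >10 reads are reported; cells were grown at 30 °C in SC-His with glucose.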
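Note: PSI is a weighted mean of sequencing reads over stability bins, variants kept only with over 10 reads, mCherry proximal and sfGFP distal, peptide attached via GGGS linker.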

Row | Sequence | protein stability index
1 | DQVDGLFTCSAR | 0.739 ± 0.027
2 | DRGCRRRCVGGG | 0.683 ± 0.011
3 | DRGGCRRAGSCQ | 0.69 ± 0.018
4 | DRHGLVGGWWAW | 0.7459 ± 0.0052
5 | DRLCAAPHYGTH | 0.599 ± 0.045
6 | DRLLLSPSPTPP | 0.739 ± 0.013
7 | DRLNLFSSFEGT | 0.721 ± 0.053
8 | DRLVGRVGGHGM | 0.755 ± 0.14
9 | DRNGAQAEISFV | 0.6 ± 0.041
10 | DRPTPPPRSSPL | 0.739 ± 0.058
11 | DRREKAKNMTKG | 0.67 ± 0.025
12 | DRRTGRAGEMSP | 0.669 ± 0.064
13 | DRSRLWSHPCPG | 0.647 ± 0.0098
14 | DRSSVLSPFHPL | 0.76 ± 0.019
15 | DRTDTNVKWRKK | 0.696 ± 0.0077
16 | DRVMTLRLTVNP | 0.691 ± 0.03
17 | DRWGGDWMERGG | 0.749 ± 0.05
18 | DSKDLTPATQVS | 0.699 ± 0.013
19 | DSLWACVGSSAL | 0.771 ± 0.024
20 | DSMLACIHPSPI | 0.708 ± 0.0064
21 | DSNLAVHRWYIS | 0.573 ± 0.018
22 | DSPRSLALFRSC | 0.642 ± 0.028
23 | DSQGSVHPEAQE | 0.723 ± 0.012
24 | DSSAFVPATILD | 0.705 ± 0.026
25 | DSSKFYTPATLL | 0.693 ± 0.048

Row | Sequence | protein stability index
26 | DSSLCFAGLHNT | 0.705 ± 0.054
27 | DSSLHRLASLKT | 0.643 ± 0.075
28 | DSSLSRPGRLLP | 0.73 ± 0.012
29 | DSVSLPYVSRPL | 0.768 ± 0.041
30 | DTALMQAGSLFH | 0.651 ± 0.054
31 | DTPLIYSLKSEC | 0.7511 ± 0.0022
32 | DVLLKVDATKTP | 0.685 ± 0.032
33 | DVRVFQMLQGDI | 0.709 ± 0.012
34 | DVTKLVLSIDSC | 0.751 ± 0.052
35 | DWEPGGGGRMVG | 0.703 ± 0.081
36 | DWKLPRIEREST | 0.678 ± 0.024
37 | DWVDFFQSVIWI | 0.761 ± 0.0079
38 | DWVYISAGGRYA | 0.657 ± 0.017
39 | EAEEVGRVVLKG | 0.643 ± 0.067
40 | EAERDEAQRRCA | 0.686 ± 0.0076
41 | EAFARGAPNQTS | 0.804 ± 0.066
42 | EALELALTWHCV | 0.7029 ± 0.0058
43 | EANEENNSSKRD | 0.686 ± 0.03
44 | ECGNYRGPYRTR | 0.678 ± 0.026
45 | ECRGGPGLGGGV | 0.635 ± 0.046
46 | ECSFAGIWVDLG | 0.689 ± 0.047
47 | EDDQETPDTVQS | 0.66 ± 0.014
48 | EDHSCVFSAFCF | 0.663 ± 0.045
49 | EECGVIDIILGG | 0.679 ± 0.013
50 | EEKEKKEKDGRR | 0.728 ± 0.042

Row | Sequence | protein stability index
51 | EEKREERGDRGR | 0.579 ± 0.01
52 | EEKRKRKSQNEI | 0.702 ± 0.045
53 | EELGGGTRNYEG | 0.693 ± 0.018
54 | EEMMGGAETLHQ | 0.649 ± 0.036
55 | EESKQKKKNEEE | 0.676 ± 0.041
56 | EFDCVGCFRTLR | 0.6618 ± 0.0017
57 | EFEDCGAWGNIG | 0.621 ± 0.039
58 | EFPRDLVFDWYG | 0.857
59 | EFRCRGPWGLEE | 0.761 ± 0.17
60 | EFRQVDGRASRP | 0.701 ± 0.0049
61 | EGAGRRYRCGWG | 0.698 ± 0.049
62 | EGDIFSGFPSFQ | 0.741 ± 0.065
63 | EGEGGKRGEGKR | 0.624 ± 0.041
64 | EGGETLLGAKGR | 0.639 ± 0.013
65 | EGGRGGVLMRGV | 0.727 ± 0.013
66 | EGGVRSRVRSRL | 0.863 ± 0.063
67 | EGKGKGRGEVKE | 0.6733 ± 0.0064
68 | EGKKEKKGSKGE | 0.708 ± 0.052
69 | EGPVYKNIGTDV | 0.6823 ± 0.0013
70 | EGRFRNGRAVSG | 0.673 ± 0.011
71 | EGRGSVVGSSEG | 0.633 ± 0.035
72 | EGVGLAETAGDD | 0.684 ± 0.039
73 | EGVKSGDGGAGG | 0.63832 ± 0.00019
74 | EHHLSRLKSLLR | 0.709 ± 0.058
75 | EHIRPNMSSYAV | 0.728 ± 0.072

Row | Sequence | protein stability index
76 | EHKSPYGTLRFP | 0.777 ± 0.11
77 | EIEFRLKLGTGV | 0.655 ± 0.04
78 | EIKKNQKRKFDG | 0.66 ± 0.041
79 | EIRGGYMGEWRE | 0.691 ± 0.082
80 | EIRIISGIDDRR | 0.628 ± 0.077
81 | EITRNKRRCARR | 0.674 ± 0.14
82 | EKGRSGVNILRV | 0.653 ± 0.011
83 | EKIERDKRKKVK | 0.621 ± 0.0076
84 | EKIKNKDYIEKT | 0.887 ± 0.094
85 | EKKDKKKRKEKG | 0.674 ± 0.028
86 | EKKKKTKYKKKK | 0.735 ± 0.052
87 | EKKKQKHKKKKN | 0.706 ± 0.031
88 | EKKNKKRNKKNK | 0.697 ± 0.058
89 | EKKRAGEDGRGK | 0.673 ± 0.0081
90 | EKKRERRRERKE | 0.65 ± 0.091
91 | EKLADTTKRRRV | 0.724 ± 0.026
92 | EKLKNTYLNRTE | 0.641 ± 0.023
93 | EKNDMKKKKNRQ | 0.713 ± 0.035
94 | EKSNQKSRRNSR | 0.638 ± 0.15
95 | ELDFFIGYGVFC | 0.626 ± 0.0082
96 | ELDRIRPHEQSH | 0.723 ± 0.03
97 | ELHPLPLPPPAV | 0.743 ± 0.013
98 | ELLASVSVSSRF | 0.6276 ± 0.0044
99 | ELLPFPPPSAPT | 0.719 ± 0.022
100 | ELLRTGRVLDRE | 0.71 ± 0.0076

Row | Sequence | protein stability index
101 | ELRPSTTPLHPS | 0.68268 ± 0.00044
102 | ELVGLAHVLELA | 0.655 ± 0.084
103 | ELWGGGFLLMLG | 0.599 ± 0.021
104 | EMTRELLMRVSK | 0.704 ± 0.015
105 | EMYLKTPVDRKL | 0.678 ± 0.038
106 | ENMVLQKRGIKV | 0.5024 ± 0.0049
107 | ENQKKSKTNRKK | 0.658 ± 0.036
108 | EPAAGFAICRHH | 0.67 ± 0.02
109 | EPIKEKKKMGSR | 0.63 ± 0.056
110 | EPRVGCVGFGIT | 0.638 ± 0.013
111 | EPSAPYYCVTKG | 0.7279 ± 0.002
112 | EQENATDRRGRE | 0.644 ± 0.026
113 | EQFLRCEALGAW | 0.661 ± 0.02
114 | EQNRINLNRSGL | 0.762 ± 0.23
115 | EQRSKSHVLPPR | 0.737 ± 0.009
116 | ERAKMYPKKKIR | 0.64 ± 0.067
117 | EREALKSCIIRA | 0.641 ± 0.014
118 | EREGREGKGRER | 0.777 ± 0.079
119 | ERKKDGRKVRKK | 0.658 ± 0.012
120 | ERKNTTSEFTNL | 0.684 ± 0.0079
121 | ERRERGGERNTP | 0.658 ± 0.01
122 | ERSHGEKGVFYL | 0.73 ± 0.031
123 | ESDLRFPGVPCI | 0.696 ± 0.011
124 | ESHSIIRRRSWW | 0.7797 ± 0.0037
125 | ESIEVGTGDWVG | 0.653 ± 0.013

Row | Sequence | protein stability index
126 | ESKKYQQDNITR | 0.608 ± 0.039
127 | ESKRKLHSSRYS | 0.6875 ± 0.0032
128 | ESPPVCFLFSSC | 0.711 ± 0.021
129 | ESRGKKPDTYTQ | 0.707 ± 0.074
130 | ESRNEPDQRLCQ | 0.686 ± 0.013
131 | ESRPRVGLERER | 0.676 ± 0.053
132 | ESSVLGFWIMSL | 0.629 ± 0.041
133 | ETARENENTIGE | 0.6575 ± 0.0065
134 | ETCTRHHPRHNS | 0.687 ± 0.043
135 | ETEASKGSRNEE | 0.627 ± 0.065
136 | ETGGQTELKVVH | 0.683 ± 0.084
137 | ETHHITHHQWKV | 0.683 ± 0.05
138 | ETKFLVDRKTDI | 0.67 ± 0.012
139 | ETQEAKGGMTRQ | 0.667 ± 0.0091
140 | ETSERIEDKDGI | 0.698 ± 0.051
141 | EVFGAGRNDPGS | 0.689 ± 0.018
142 | EVGLSVLLPGGG | 0.675 ± 0.022
143 | EVIRGNEGGKER | 0.708 ± 0.018
144 | EVPLGLIRLPSV | 0.695 ± 0.06
145 | EVTEVCTIKVHV | 0.577 ± 0.0097
146 | EVTVSGEEQRAG | 0.6881 ± 0.0044
